From PMC8860585, “TRIM21 suppresses CHK1 activation by preferentially targeting CLASPIN for K63-linked ubiquitination” (Nucleic Acids Research, 2022)

Target: T1, HIS-TRIM21 (human, UniProt P19474 1-475)
T1 construct: human TRIM21 cDNA (full length cDNA by the plasmid paragraph) cloned into pET28a; source: bacterially purified (pET28a)
Assay: pull-down; GST-CLASPIN 301–630aa immobilized on Glutathione Sepharose 4B beads incubated with HIS-TRIM21 for 4 h at 4°C; HIS-TRIM21 by immunoblot
Conditions: both partners purified

T1 sequence (P19474 whole entry): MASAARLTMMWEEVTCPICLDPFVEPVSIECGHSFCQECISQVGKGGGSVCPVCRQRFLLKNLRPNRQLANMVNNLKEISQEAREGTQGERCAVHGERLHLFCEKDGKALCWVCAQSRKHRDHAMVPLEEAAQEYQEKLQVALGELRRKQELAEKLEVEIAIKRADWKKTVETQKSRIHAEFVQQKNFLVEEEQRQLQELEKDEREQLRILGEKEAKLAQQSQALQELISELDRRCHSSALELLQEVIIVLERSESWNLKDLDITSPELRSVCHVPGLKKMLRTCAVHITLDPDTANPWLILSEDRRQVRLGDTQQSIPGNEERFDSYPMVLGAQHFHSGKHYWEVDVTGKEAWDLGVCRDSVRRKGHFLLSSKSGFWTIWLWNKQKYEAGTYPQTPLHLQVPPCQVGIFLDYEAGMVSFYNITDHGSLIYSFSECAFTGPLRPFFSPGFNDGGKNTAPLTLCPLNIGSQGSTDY

- binding result: binds
B1: GST-CLASPIN 301–630aa (domain or fragment, human, UniProt Q9HAW4 301-630, looked up)
chain: ALNLPYHMPENKTIHDFFKRKPRPTCHGNAMALLKSSKYQSSHHKEIIDTANTTEMNSDHHSKGSEQTTGAENEVETNALPVVSKETQIITGSDESCRKDLVKNEELEIQEKQKQSDIRPSPGDSSVLQQESNFLGNNHSEECQVGGLVAFEPHALEGEGPQNPEETDEKVEEPEQQNKSSAVGPPEKVRRFTLDRLKQLGVDVSIKPRLGADEDSFVILEPETNRELEALKQRFWKHANPAAKPRAGQTVNVNVIVKDMGTDGKEELKADVVPVTLAPKKLDGASHTKPGEKLQVLKAKLQEAMKLRRFEERQKRQALFKLDNEDGFEE
notes: human CLASPIN F2 region, residues 301–630; also called GST fusion of the CLASPIN F2 region (301–630aa); source: bacterially purified (pGEX4T-1), immobilized on Glutathione Sepharose 4B
